No end group written: not given here. MR121 = fluorophore label at the N-terminus
Tests used:
[1] = molecular target: T1, BACE2 (Homo sapiens, UniProt Q9Y5Z0); assay: MR121-peptide cleavage assay; format: biochemical; parameters: scale not given here; conditions: substrate peptides labelled with MR121 at N-terminus and tryptophan at C-terminus
T1 construct: made in house; host or cells: E. coli BL21(DE3)
T1 sequence (Q9Y5Z0 20-465): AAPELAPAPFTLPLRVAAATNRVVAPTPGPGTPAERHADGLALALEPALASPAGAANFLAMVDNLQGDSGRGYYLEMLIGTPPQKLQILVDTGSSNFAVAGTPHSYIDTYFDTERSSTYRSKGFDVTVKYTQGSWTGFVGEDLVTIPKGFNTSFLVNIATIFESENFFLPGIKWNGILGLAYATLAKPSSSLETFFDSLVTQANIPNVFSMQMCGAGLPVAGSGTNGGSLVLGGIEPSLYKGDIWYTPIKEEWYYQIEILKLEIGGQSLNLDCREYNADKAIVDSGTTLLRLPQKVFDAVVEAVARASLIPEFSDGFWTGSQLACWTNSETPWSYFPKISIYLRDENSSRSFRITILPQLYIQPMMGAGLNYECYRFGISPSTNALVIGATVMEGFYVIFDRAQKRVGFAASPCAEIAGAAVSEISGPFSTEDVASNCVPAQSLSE
Experimental: In a related assay, a peptide was devised with the same sequence, which was labeled at the N-terminus with MR121 and at the C-terminus with Tryptophan.
Substrate peptides derived from TMEM27 with activity in the MR121-peptide cleavage assay.
(§1) BACE2 enzyme ectodomain was prepared as described in Ostermann et al [“Crystal Structure of Human BACE2 in Complex with a Hydroxyethylamine Transition-state Inhibitor.” Journal of Molecular Biology 355 (2006) 249-261].

[2] = molecular target: T1, BACE2; assay: FRET peptide cleavage assay, BACE2 activity on peptide substrates; format: biochemical; conditions: pH 4.5, substrate 5 μM, FIG. 7 and FIG. 9
Experimental: The FRET assay was performed essentially as described in Grüninger-Leitch et al. [Substrate and inhibitor profile of BACE (beta-secretase) and comparison with other mammalian aspartic proteases. Journal of Biological Chemistry (2002) 277(7) 4687-93]. In summary, a peptide is designed that is cleaved by the protease. The peptide is labelled with dabsyl at the N terminus and Lucifer Yellow at the C-terminus, such that for an intact peptide the Lucifer Yellow fluorescence is quenched by the dabsyl. When the peptide is cut by BACE2, the quenching is removed and a fluorescent signal is generated.
The assay was performed as described in Grueninger et al. 2002 at pH 4.5 using a substrate concentration of 5 μM. All FRET-peptides had the format described.
as §1

[3] = molecular target: BACE1 (Homo sapiens, UniProt P56817); assay: FRET peptide cleavage assay, BACE1 activity on peptide substrates; format: biochemical; conditions: pH 4.5, substrate 5 μM, FIG. 7
[4] = tested on: Min6 cells; assay: Proliferation assay in Min6 cells (EdU, confocal microscopy); format: cell-based; conditions: 48 hours, p<10-6, FIG. 5a
Experimental: 50′000 MING B1 cells per well were seeded in a 96-well plate using standard trypsinization method. The following day, serum-supplemented complete medium (described earlier) was removed and replaced by serum-free and low glucose medium (Invitrogen) supplemented with the compound as follows: 10 nM exendin-4 (Sigma-Aldrich) as a positive control was added to the cells every 12 h, to avoid degradation. […] As an absolute positive control cells were also grown in FCS supplemented standard media. Cells were incubated for 48 hours.
After this incubation, medium was discarded and replaced by the serum-supplemented medium containing 10 nM EdU (Invitrogen) and incubated for 1 h at 37° C. […]
Spinning-disc confocal fluorescence microscopy of the 96-well plate has been performed on the high-throughput automated imaging system Opera™ QEHS (PerkinElmer Cellular Technologies, Hamburg, Germany). […] In each well, typically 12 pairs of scanning images were recorded through a UAPO 20×NA 0.7 water immersion objective lens (Olympus) and optimized filter sets by 2 independent high quantum-efficiency 12 bit CCD cameras (1.3 mega pixels monochrome). […]
Confocal micrographs were analyzed using the proprietary software environment of PerkinElmer's Opera (Acapella 1.8, PerkinElmer Cellular Technologies, Hamburg, Germany). […]

BACE1, sequence (P56817 46-501, species assumed): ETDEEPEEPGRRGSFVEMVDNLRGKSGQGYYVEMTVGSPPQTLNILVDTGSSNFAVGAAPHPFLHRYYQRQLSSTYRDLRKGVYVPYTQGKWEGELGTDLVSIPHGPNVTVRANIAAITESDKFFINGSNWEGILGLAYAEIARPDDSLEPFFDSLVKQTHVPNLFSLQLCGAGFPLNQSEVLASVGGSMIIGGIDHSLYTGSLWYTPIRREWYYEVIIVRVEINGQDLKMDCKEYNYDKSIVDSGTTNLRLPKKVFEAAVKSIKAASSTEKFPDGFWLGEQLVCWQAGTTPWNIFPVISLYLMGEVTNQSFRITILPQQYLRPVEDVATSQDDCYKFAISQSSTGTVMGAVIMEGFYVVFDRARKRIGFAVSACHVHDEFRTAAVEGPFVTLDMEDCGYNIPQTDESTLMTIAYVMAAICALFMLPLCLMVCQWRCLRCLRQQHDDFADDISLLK

Question: How did the Relative activity [1] turn out when “C QELEFLKI W: Substrate peptide derived from TMEM27 for MR121-peptide cleavage assay (MR121-CQELEFLKIW)” was run?
Answer: The Relative activity was 100.

Question: “dabsyl-NSLEFLGIQP-lucifer yellow: FRET peptide based on the sequence of ACE2 at the site equivalent to the BACE2 cleavage site in TMEM27 (dabsyl-NSLEFLGIQP-{Lucifer Yellow})” was tested. Which “BACE2 activity against FRET peptide substrate” value [2] did it give?
Answer: The value was “efficiency greater than that of the TMEM27 substrate”.

Question: With “C LEFLKI W: Substrate peptide derived from TMEM27 for MR121-peptide cleavage assay (MR121-CLEFLKIW)” as the substance, how does the Relative activity [1] read?
Answer: Its Relative activity is 24.

Question: What does the source list for “dabsyl—QTLEFLKIPS—LucY: FRET peptide based on the TMEM27 sequence, dabsyl at N terminus and Lucifer Yellow at C-terminus (dabsyl-QTLEFLKIPS-{Lucifer Yellow})”?
Answer: BACE2 activity against FRET peptide substrate [2]: high activity; BACE1 activity against FRET peptide substrate [3]: insignificant activity

Question: With “C QTLEFLK W: Substrate peptide derived from TMEM27 for MR121-peptide cleavage assay (MR121-CQTLEFLKW)” as the substance, how does the Relative activity [1] read?
Answer: Its Relative activity is 62.

Question: How did the Relative activity [1] turn out when “C QTLEFLKI W: Substrate peptide derived from TMEM27 for MR121-peptide cleavage assay (MR121-CQTLEFLKIW)” was run?
Answer: The Relative activity was 96.

Question: Which Relative activity [1] does the source give for “C TLEFLKI W: Substrate peptide derived from TMEM27 for MR121-peptide cleavage assay (MR121-CTLEFLKIW)” here?
Answer: The Relative activity was 28.

Question: For “C QTLEFLKIPS W: Substrate peptide derived from TMEM27 for MR121-peptide cleavage assay (MR121-CQTLEFLKIPSW)”, which Relative activity [1] is on record?
Answer: Its Relative activity is 91.

Question: How did the “proliferation rate compared to basal proliferation rate of starved cells” value [4] turn out when exendin-4 was run?
Answer: The value was “highly significant proliferation increase”.

Question: For “C QTLEF W: Substrate peptide derived from TMEM27 for MR121-peptide cleavage assay (MR121-CQTLEFW)”, which Relative activity [1] is on record?
Answer: Its Relative activity is 21.

Question: How did the Relative activity [1] turn out when “C QTLEFL W: Substrate peptide derived from TMEM27 for MR121-peptide cleavage assay (MR121-CQTLEFLW)” was run?
Answer: The Relative activity was 32.

Question: “C QTLEFLKIP W: Substrate peptide derived from TMEM27 for MR121-peptide cleavage assay (MR121-CQTLEFLKIPW)” was tested. Which Relative activity [1] did it give?
Answer: The Relative activity was 75.
